We go through one molecule from US7135319 (Pfizer, dated 2006).

The assay has as its target T1, B. subtilis Acyl Carrier Protein Synthase (ACPS), holo-[acyl carrier protein] synthase (B. subtilis, UniProt P96618 3-121, limits assumed).
T1 construct: A trimer of ACPS was the molecular replacement probe; three ACPS molecules per asymmetric unit; also called A1; B1
T1 sequence: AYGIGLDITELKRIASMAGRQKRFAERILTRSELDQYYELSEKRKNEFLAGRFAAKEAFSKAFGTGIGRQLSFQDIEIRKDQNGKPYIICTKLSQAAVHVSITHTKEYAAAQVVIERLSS
The experiment in a line: gel filtration of the mixed proteins, complex purified and crystallized. The protocol:
Crystallization of ACPS with ACP Purified ACP and ACPS were mixed at a 1:1.1 molar ratio and the mixture was loaded onto a gel filtration column. The resulting purified complex was dialyzed against a solution containing 50 mM Bis-Tris pH 6.4, 100 mM NaCl, 10 mM MgCl_2, and 10 mM DTT before concentrating the complex to ~10 mg/mL. Crystallization conditions for the ACP/ACPS complex were also determined using the sparse matrix screens available from both Hampton Research and Emerald Biostructures. Screens were set up with 2 μL drops at both 18° C. and 4° C. Optimization of a crystalline hit (0.2M Potassium Formate, 20% PEG 3350) gave diffraction quality rod shaped crystals. Crystals could be obtained between 0.15M and 0.3M Potassium Formate and between 15 and 23% PEG 3350. The rate of growth seriously affected the quality of crystals with the optimal crystals being formed between 8 and 12 days after setup. The crystals were grown with a 1:2 drop ratio of protein to well solution at 18° C. These crystals belonged to space group C222_1 with unit cell parameters a=78.46, b=122.03, c=136.77 Å and contained three molecules of ACPS and three molecules of ACP in the asymmetric unit.
On the technique in general: SEC sorts molecules by how far they enter the pores of the column.

B1: B. subtilis Acyl Carrier Protein (ACP), holo form (other)
chain: GPLGSADTLERVTKIIVDRLGVDEADVKLEASFKEDLGADSLDVVELVMELEDEFDMEISDEDAEKIATVGDAVNYIQNQQ
modifications: phosphopantetheinyl group attached to the O-gamma of Ser-36
notes: also called holo-ACP; AP1
As for B1, the binding result was “binds”.
